Experimental data from US20180282373.

Biological target: purified recombinant full-length WDR5 (UniProt P61964)

## GST-tagged MLL2 Win-SET domain, MLL2(5319-5537), Win motif arginine to alanine mutant
  core complex H3K4 dimethylation activity, mutant against wild type: a 2-fold increase in this activity with the MLL2 Win motif variant

## GST-tagged SETd1A Win-SET domain, Setd1A(1474-1708), Win motif arginine to alanine mutant
  core complex methyltransferase activity, H3K4me1 and H3K4me2 peptides, mutant against wild type: at least a 2-fold reduction in activity compared to their wild-type counterparts

## GST-tagged MLL4 Win-SET domain, MLL4(2490-2715), Win motif arginine to alanine mutant
  core complex methyltransferase activity, H3K4me1 peptide, mutant against wild type: showed similar amounts of activity compared to that of their wild-type counterparts
